Test results reported in patent US11827699 (dated 2023).

T1: human FcγRIa (human, UniProt P12314)
T1 chain: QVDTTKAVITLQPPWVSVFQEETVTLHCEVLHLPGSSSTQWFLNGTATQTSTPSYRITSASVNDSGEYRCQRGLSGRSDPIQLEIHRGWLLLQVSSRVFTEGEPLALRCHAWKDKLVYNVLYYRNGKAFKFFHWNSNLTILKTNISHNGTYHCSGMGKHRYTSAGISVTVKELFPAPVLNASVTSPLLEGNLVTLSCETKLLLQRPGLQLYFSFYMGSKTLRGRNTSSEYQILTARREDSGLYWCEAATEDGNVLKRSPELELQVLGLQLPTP

T2: human FcγRIIa R131 (human, UniProt P12318)
T2 chain: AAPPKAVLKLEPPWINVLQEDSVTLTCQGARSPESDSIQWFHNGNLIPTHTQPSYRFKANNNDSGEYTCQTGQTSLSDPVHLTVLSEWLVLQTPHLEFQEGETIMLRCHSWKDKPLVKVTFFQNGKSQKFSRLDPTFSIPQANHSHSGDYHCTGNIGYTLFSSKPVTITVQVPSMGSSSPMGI

T3: human FcγRIIa H131 (human, UniProt P12318)
T3 chain: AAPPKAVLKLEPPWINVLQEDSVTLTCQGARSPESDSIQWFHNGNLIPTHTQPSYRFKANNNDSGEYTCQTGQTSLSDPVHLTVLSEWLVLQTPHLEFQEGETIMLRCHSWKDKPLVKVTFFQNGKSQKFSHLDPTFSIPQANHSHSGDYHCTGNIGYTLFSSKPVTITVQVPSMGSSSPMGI

T4: human FcγRIIb (human, UniProt P31994)
T4 chain: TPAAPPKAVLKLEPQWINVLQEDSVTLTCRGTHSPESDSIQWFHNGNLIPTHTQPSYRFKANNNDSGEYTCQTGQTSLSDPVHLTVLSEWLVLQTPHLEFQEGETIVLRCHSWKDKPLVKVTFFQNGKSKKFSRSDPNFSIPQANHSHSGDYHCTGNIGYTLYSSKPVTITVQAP


Assays:
Assay in all cases: SPR
human FcγRIa = target: T1, human FcγRIa
human FcγRIIa R131 = target: T2, human FcγRIIa R131
human FcγRIIa H131 = target: T3, human FcγRIIa H131
human FcγRIIb = target: T4, human FcγRIIb
human FcγRIIIa V158 = human FcγRIIIa V158 (human, UniProt P08637)
human FcγRIIIa V158, sequence (P08637 17-208 F176V): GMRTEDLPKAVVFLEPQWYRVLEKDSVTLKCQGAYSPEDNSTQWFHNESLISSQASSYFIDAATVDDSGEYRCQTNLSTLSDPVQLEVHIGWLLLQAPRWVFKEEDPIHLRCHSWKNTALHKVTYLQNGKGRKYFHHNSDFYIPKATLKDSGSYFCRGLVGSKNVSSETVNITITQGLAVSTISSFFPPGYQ

Binder | Kd (human FcγRIa) [nM] | Kd (human FcγRIIa R131) [nM] | Kd (human FcγRIIa H131) [nM] | Kd (human FcγRIIb) [nM] | Kd (human FcγRIIIa V158) [nM]
IL6R-BP479 (antibody) chain 1: QVQLQESGPGLVKPSETLSLTCAVSGHSISHDHAWSWVRQPPGEGLEWIGFISYSGITNYNPSLQGRVTISRDNSKNTLYLQMNSLRAEDTAVYYCARSLARTTAMDYWGEGTLVTVSSASTKGPSVFPLAPSSKSTSGGTAALGCLVKDYFPEPVTVSWNSGALTSGVHTFPAVLQSSGLYSLSSVVTVPSSSLGTQTYICNVNHKPSNTKVDKKVEPKSCDKTHTCPPCPAPDLLGDDSVFLFPPKPKDTLMISRTPEVTCVVIDLAEEDGEVKFNWYVDGVEVHNAKTKPREEQYNSTYRVVSVLTVLHQDWLNGKEYKCKVSNKALPAPIEKTISKAKGQPREPQVYTLPPSRDELTKNQVSLTCLVKGFYPSDIAVEWESNGQPENNYKTTPPVLDSDGSFFLYSKLTVDKSRWQQGNVFSCSVMHEALHNHYTQESLSLSP chain 2: not shown | 5.3 | 900 | 15000 | 56 | 40000
IL6R-BP491 (antibody) chain 1: QVQLQESGPGLVKPSETLSLTCAVSGHSISHDHAWSWVRQPPGEGLEWIGFISYSGITNYNPSLQGRVTISRDNSKNTLYLQMNSLRAEDTAVYYCARSLARTTAMDYWGEGTLVTVSSASTKGPSVFPLAPSSKSTSGGTAALGCLVKDYFPEPVTVSWNSGALTSGVHTFPAVLQSSGLYSLSSVVTVPSSSLGTQTYICNVNHKPSNTKVDKKVEPKSCDKTHTCPPCPAPELLGDDSVFLFPPKPKDTLMISRTPEVTCVVIDVAEEDGEVKFNWYVDGVEVHNAKTKPREEQDNSTYRVVSVLTVLHQDWLNGKEYKCKVSNKALPRPIEKTISKAKGQPREPQVYTLPPSRDELTKNQVSLTCLVKGFYPSDIAVEWESNGQPENNYKTTPPVLDSDGSFFLYSKLTVDKSRWQQGNVFSCSVMHEALHNHYTQESLSLSP chain 2: not shown | 5.3 | 120 | 2200 | 3 | 21000
IL6R-BP262 (antibody) chain 1: QVQLQESGPGLVKPSETLSLTCAVSGHSISHDHAWSWVRQPPGEGLEWIGFISYSGITNYNPSLQGRVTISRDNSKNTLYLQMNSLRAEDTAVYYCARSLARTTAMDYWGEGTLVTVSSASTKGPSVFPLAPSSKSTSGGTAALGCLVKDYFPEPVTVSWNSGALTSGVHTFPAVLQSSGLYSLSSVVTVPSSSLGTQTYICNVNHKPSNTKVDKKVEPKSCDKTHTCPPCPAPELLGDDSVFLFPPKPKDTLMISRTPEVTCVVVDVSEEDGEVKFNWYVDGVEVHNAKTKPREEQYNSTYRVVSVLTVLHQDWLNGKEYKCKVSNKALPAPIEKTISKAKGQPREPQVYTLPPSRDELTKNQVSLTCLVKGFYPSDIAVEWESNGQPENNYKTTPPVLDSDGSFFLYSKLTVDKSRWQQGNVFSCSVMHEALHNHYTQESLSLSP chain 2: not shown | 10 | 2000 | 45000 | 120 | 56000
IL6R-BP484 (antibody) chain 1: QVQLQESGPGLVKPSETLSLTCAVSGHSISHDHAWSWVRQPPGEGLEWIGFISYSGITNYNPSLQGRVTISRDNSKNTLYLQMNSLRAEDTAVYYCARSLARTTAMDYWGEGTLVTVSSASTKGPSVFPLAPSSKSTSGGTAALGCLVKDYFPEPVTVSWNSGALTSGVHTFPAVLQSSGLYSLSSVVTVPSSSLGTQTYICNVNHKPSNTKVDKKVEPKSCDKTHTCPPCPAPDLLGDDSVFLFPPKPKDTLMISRTPEVTCVVVDVAEDDGEVKFNWYVDGVEVHNAKTKPREEQYNSTYRVVSVLTVLHQDWLNGKEYKCKVSNKALPAPIEKTISKAKGQPREPQVYTLPPSRDELTKNQVSLTCLVKGFYPSDIAVEWESNGQPENNYKTTPPVLDSDGSFFLYSKLTVDKSRWQQGNVFSCSVMHEALHNHYTQESLSLSP chain 2: not shown | 0.82 | 780 | 11000 | 46 | 25000
IL6R-BP503 (antibody) chain 1: QVQLQESGPGLVKPSETLSLTCAVSGHSISHDHAWSWVRQPPGEGLEWIGFISYSGITNYNPSLQGRVTISRDNSKNTLYLQMNSLRAEDTAVYYCARSLARTTAMDYWGEGTLVTVSSASTKGPSVFPLAPSSKSTSGGTAALGCLVKDYFPEPVTVSWNSGALTSGVHTFPAVLQSSGLYSLSSVVTVPSSSLGTQTYICNVNHKPSNTKVDKKVEPKSCDKTHTCPPCPAPDLLGDDSVFLFPPKPKDTLMISRTPEVTCVVIDVAEEDGEVKFNWYVDGVEVHNAKTKPREEQDNSTYRVVSVLTVLHQDWLNGKEYKCKVSNKGLPRPIEKTISKAKGQPREPQVYTLPPSRDELTKNQVSLTCLVKGFYPSDIAVEWESNGQPENNYKTTPMVLDSDGSFFLYSKLTVDKSRWQQGNVFSCSVMHEALHNHYTQESLSLSP chain 2: not shown | 1.2 | 57 | 860 | 1.7 | 21000
IL6R-BP496 (antibody) chain 1: QVQLQESGPGLVKPSETLSLTCAVSGHSISHDHAWSWVRQPPGEGLEWIGFISYSGITNYNPSLQGRVTISRDNSKNTLYLQMNSLRAEDTAVYYCARSLARTTAMDYWGEGTLVTVSSASTKGPSVFPLAPSSKSTSGGTAALGCLVKDYFPEPVTVSWNSGALTSGVHTFPAVLQSSGLYSLSSVVTVPSSSLGTQTYICNVNHKPSNTKVDKKVEPKSCDKTHTCPPCPAPDLLGDDSVFLFPPKPKDTLMISRTPEVTCVVIDVAEEDGEVKFNWYVDGVEVHNAKTKPREEQDNSTYRVVSVLTVLHQDWLNGKEYKCKVSNKALPAPIEKTISKAKGQPREPQVYTLPPSRDELTKNQVSLTCLVKGFYPSDIAVEWESNGQPENNYKTTPPVLDSDGSFFLYSKLTVDKSRWQQGNVFSCSVMHEALHNHYTQESLSLSP chain 2: not shown | 1.2 | 470 | 3700 | 18 | 30000
IL6R-BP502 (antibody) chain 1: QVQLQESGPGLVKPSETLSLTCAVSGHSISHDHAWSWVRQPPGEGLEWIGFISYSGITNYNPSLQGRVTISRDNSKNTLYLQMNSLRAEDTAVYYCARSLARTTAMDYWGEGTLVTVSSASTKGPSVFPLAPSSKSTSGGTAALGCLVKDYFPEPVTVSWNSGALTSGVHTFPAVLQSSGLYSLSSVVTVPSSSLGTQTYICNVNHKPSNTKVDKKVEPKSCDKTHTCPPCPAPDLLGDDSVFLFPPKPKDTLMISRTPEVTCVVIDVAEEDGEVKFNWYVDGVEVHNAKTKPREEQDNSTYRVVSVLTVLHQDWLNGKEYKCKVSNKGLPRPIEKTISKAKGQPREPQVYTLPPSRDELTKNQVSLTCLVKGFYPSDIAVEWESNGQPENNYKTTPPVLDSDGSFFLYSKLTVDKSRWQQGNVFSCSVMHEALHNHYTQESLSLSP chain 2: not shown | 2.1 | 110 | 1300 | 3.7 | 24000
IL6R-BP488 (antibody) chain 1: QVQLQESGPGLVKPSETLSLTCAVSGHSISHDHAWSWVRQPPGEGLEWIGFISYSGITNYNPSLQGRVTISRDNSKNTLYLQMNSLRAEDTAVYYCARSLARTTAMDYWGEGTLVTVSSASTKGPSVFPLAPSSKSTSGGTAALGCLVKDYFPEPVTVSWNSGALTSGVHTFPAVLQSSGLYSLSSVVTVPSSSLGTQTYICNVNHKPSNTKVDKKVEPKSCDKTHTCPPCPAPDLLGDDSVFLFPPKPKDTLMISRTPEVTCVVIDVAEEDGEVKFNWYVDGVEVHNAKTKPREEQDNSTYRVVSVLTVLHQDWLNGKEYKCKVSNKALPRPIEKTISKAKGQPREPQVYTLPPSRDELTKNQVSLTCLVKGFYPSDIAVEWESNGQPENNYKTTPPVLDSDGSFFLYSKLTVDKSRWQQGNVFSCSVMHEALHNHYTQESLSLSP chain 2: not shown | 2.2 | 74 | 1600 | 1.9 | 20000
IL6R-BP498 (antibody) chain 1: QVQLQESGPGLVKPSETLSLTCAVSGHSISHDHAWSWVRQPPGEGLEWIGFISYSGITNYNPSLQGRVTISRDNSKNTLYLQMNSLRAEDTAVYYCARSLARTTAMDYWGEGTLVTVSSASTKGPSVFPLAPSSKSTSGGTAALGCLVKDYFPEPVTVSWNSGALTSGVHTFPAVLQSSGLYSLSSVVTVPSSSLGTQTYICNVNHKPSNTKVDKKVEPKSCDKTHTCPPCPAPDLLGDDSVFLFPPKPKDTLMISRTPEVTCVVIDVAEEDGEVKFNWYVDGVEVHNAKTKPREEQYNSTYRVVSVLTVLHQDWLNGKEYKCKVSNKALPRPIEKTISKAKGQPREPQVYTLPPSRDELTKNQVSLTCLVKGFYPSDIAVEWESNGQPENNYKTTPLVLDSDGSFFLYSKLTVDKSRWQQGNVFSCSVMHEALHNHYTQESLSLSP chain 2: not shown | 1.3 | 51 | 930 | 1.7 | 10000
